From paper PMC2856694

Target: T1, gp96 from normal mouse organs (mouse (endogenous in mouse organs)), P08113
T1 chain: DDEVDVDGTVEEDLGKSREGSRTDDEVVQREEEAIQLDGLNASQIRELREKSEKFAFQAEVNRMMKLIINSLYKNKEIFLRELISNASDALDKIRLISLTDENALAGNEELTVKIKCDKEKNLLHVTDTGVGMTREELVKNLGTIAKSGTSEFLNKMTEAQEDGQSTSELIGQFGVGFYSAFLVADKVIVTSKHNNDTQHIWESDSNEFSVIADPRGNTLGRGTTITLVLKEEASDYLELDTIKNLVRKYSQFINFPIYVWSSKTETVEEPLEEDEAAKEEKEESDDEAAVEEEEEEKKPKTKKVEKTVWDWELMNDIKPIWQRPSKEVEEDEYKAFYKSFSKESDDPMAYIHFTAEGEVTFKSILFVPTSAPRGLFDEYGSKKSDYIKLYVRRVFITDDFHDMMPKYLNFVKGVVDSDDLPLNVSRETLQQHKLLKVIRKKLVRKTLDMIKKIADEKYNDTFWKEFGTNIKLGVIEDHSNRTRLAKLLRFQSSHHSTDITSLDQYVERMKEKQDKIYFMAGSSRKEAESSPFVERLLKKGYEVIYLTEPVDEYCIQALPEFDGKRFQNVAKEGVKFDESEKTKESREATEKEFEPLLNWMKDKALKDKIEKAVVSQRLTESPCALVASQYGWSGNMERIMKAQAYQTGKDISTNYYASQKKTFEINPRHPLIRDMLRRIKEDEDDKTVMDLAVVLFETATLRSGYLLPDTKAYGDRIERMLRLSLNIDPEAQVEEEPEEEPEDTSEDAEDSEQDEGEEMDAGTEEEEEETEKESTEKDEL
Assay: non-reducing SDS-PAGE with immunoblot
Settings: remark: other sources report otherwise

percent of total gp96 migrating at ~200 kDa (disulfide-linked dimer): < 50%
B1: gp96 from normal mouse organs, P08113 22-802 (natural protein)
chain: T1 chain
